Test results: patent US6399314B1, “Methods of detection of amyloidogenic proteins” (American Cyanamid Company, priority 1999, dated 2002)

Experiments:
[1] = Thioflavin fluorescence assay of the extent of aggregation of Aβ(1-40) in different buffers/media; type: physicochemical; set-up: key to Percent Aggregation in HEPES: ++ indicates aggregates were formed but not quantitated because end point was not reached; conditions: rotary shaker 500 rpm
Excerpt: Fluorescence Spectroscopy. Thioflavin binds amyloid fibrils to induce a characteristic hyperchromic fluorescence shift in the spectrum (LeVine, J. Exp. Clin. Invest., 2:1-6, 1995). The induced fluorescence due to thioflavin is specific for amyloid β-pleated fibrils, but not for other β-sheet structures or for the soluble oligomeric forms of the peptide. Free thioflavin is a weak fluorophore with an excitation maximum at 330 nm. Upon binding to the amyloid fibrils, the fluorescence of thioflavin is enhanced with a red shift in the excitation spectrum by 100 nm, relative to the free form. We have used the increase in fluorescence intensity at excitation and emission wavelengths of 440 nm and 485 nm, respectively, to characterize the aggregation event.
(§1) Spectroscopic Assays. To determine the extent of aggregation, aliquots of the peptide were removed at various time intervals (up to nine hours), and diluted into PBS buffer-containing 10 μM thioflavin. The final concentrations of peptide and thioflavin in the fluorescence assay were 10 μM. The fluorescence intensities of the peptide-thioflavin complex were measured at excitation and emission wavelengths of 435 and 485 nm, respectively, after the reaction had equilibrated for five minutes. Fluorescence spectral scans were made using 435 nm excitation and 485 nm emission wavelengths using a SPEX™ fluorolog-2 spectrofluorometer (Instruments S.A.®, Jobin Yvon-Spex, Edison, N.J.). For the Congo red experiments, peptide-thioflavin complex was titrated with increasing concentrations of Congo red from 0.1 to 3.5 micromolar concentrations. The fluorescence intensity changes were measured at the above-mentioned spectral wavelengths. When fluorescence intensities were measured in a plate reader, the peptide was diluted into PBS buffer-containing 10 μM thioflavin, to a final volume of 100 μL.
Preparation ofAmyloid Peptide. Aβ(1-40) was purchased from Anaspec (San Jose, Calif.) and its chemical purity was verified using reverse phase HPLC, ESI-MS and protein sequencing methods. The lyophilized peptide was dissolved in hexafluoroisopropanol (HFIP) solvent to aid in disaggregation of peptide. Peptide in HFIP solvent, was stored at −80° C. Prior to use, peptide solution was thawed and the solvent was evaporated under a stream of nitrogen. The peptide was dissolved in buffer to obtain a concentration of 50 μM, sonicated approximately twenty to forty seconds, and then vortexed briefly, approximately five seconds or less, to aid dissohltion of peptide. To determine the effects of media on the rates of aggregation, peptide was dissolved in one of the following buffers: PBS, 50 mM HEPES™ or in NEUROBASAL™ medium. Peptide solutions were dispensed into microtiter plates at a final concentration of […] in 100 μL. Aggregation was initiated by shaking plates continuously in a rotary shaker.

[2] = test system: rat fetal (E18) hippocampal cultures; assay: Neurotoxicity assay (LDH release); type: cell-based; conditions: for Toxicity to neuronal cultures: 72 hour toxicity assay
Protocol: Neurotoxicity Assay. Peptide was aggregated according to the end points determined in the CD and fluorescence assay and applied to primary neuronal cell cultures to assess cytotoxicity of the aggregated peptide. The release of LDH was used to monitor cell viability in the presence of Aβ and Congo red.
Aβ(1-40) toxicity was assessed using eight day-in-vitro (DIV) rat fetal (E18) hippocampal cultures. The cells were cultured in 48-well dishes previously coated with […] 0.1 mg/ml of poly-L-lysine (100 μl/well) and, subsequently, with 100 μl/well of 5 μg/ml of mouse laminin. The cells were seeded at a density of 92,300 cells/well in a total volume of 500 μl of NEUROBASAL™ medium containing 1XB27 supplement, 5% heat inactivated and qualified fetal bovine serum, 0.5 mM glutamine, 50 μ/ml penicillin, and 0.05 mg/ml streptomycin, and were initially placed in humidified 5% CO2 in air. After twenty-four hours, the medium was replaced with fresh medium lacking the penicillin, streptomycin, and fetal bovine serum and the cultures were thereafter maintained in air containing 5% CO2 and 9% O2. Fresh medium was substituted into each well on day five. On the seventh day in vitro, the medium was replaced with antioxidant free B27 supplemented medium lacking the penicillin, streptomycin, and fetal bovine serum. The toxicity test was initiated on the eighth day in vitro by substituting into each well 500 μl of the medium used on day seven (as the control treatment) or an experimental solution prepared with the final (control) medium. Each experimental solution was tested on cultures contained in five wells. Toxicity was assessed on the eleventh day in vitro using the lactic acid dehydrogenase (LDH; Sigma 340-UV) assay. Aggregated peptide was diluted five-fold to a final concentration of 10 uM, for the toxicity assays. Complexes of Congo red with preformed aggregates and those formed in co-aggregates were tested in the cellular assays along with aggregated peptide in vehicle controls.

[3] = target: T1, aggregated peptide (Aβ(1-40)) (Homo sapiens, UniProt P05067); assay: Quenching of thioflavin fluorescence by titration with Congo red; type: binding; conditions: for Mode of binding to aggregated peptide: Congo red and thioflavin together on aggregated peptide
T1 construct: Aβ(1-40) was purchased from Anaspec (San Jose, Calif.); purchased Anaspec (San Jose, Calif.); host or cells: synthetic peptide
Excerpt: In these experiments, thioflavin was complexed with aggregated peptide prior to titration with increasing amounts of Congo red. The resulting decrease in fluorescence intensity is due to energy transfer of the fluorescence emission of thioflavin to Congo red. Therefore, assays that rely on thioflavin alone are likely to generate false positives in primary assays, while spectroscopic assays described in this invention would identify the more promising inhibitors of amyloidogenesis.
as §1

β-amyloid protein 1-40 = target: T2, β-amyloid protein 1-40 (Homo sapiens, UniProt P05067); assay: Fluorescence spectroscopy of Congo red complexes with amyloid peptide; type: binding
T2 construct: Aβ (1-40) was dissolved in 100% hexafluoroisopropanol
Excerpt: 3. Fluorescence spectroscopy was used to differentiate complexes of Congo red. Congo red binds to preformed fibrils as well as to intermediate aggregate forms of the amyloid polypeptide. […] The fluorescence excitation spectrum of Congo red in the aggregate-bound state is also red shifted relative to the free form of the […]. Changes in the fluorescence properties of Congo red are dependent on the aggregated state of the […]. The differences in the observed spectral characteristics of the coaggregates and complexes of the fibrillar polypeptide with Congo red are due to the differences in the relative hydrophobicity of the binding sites and to the number of bound Congo red molecules in the complexes with preformed fibrils and coaggregates.
The fluorescence emission spectra of complexes of Congo red were obtained after diluting the peptide fivefold into a buffered solution. Congo red was added to freshly diluted fibrillar peptide and the fluorescence spectrum was scanned at a final concentration of 10 μM of peptide. The concentrations of peptide and Congo red in the fluorescence assay were 10 μM and 8.6 μM respectively. The differences in the fluorescence intensities and emission wavelengths of the coaggregates and preformed aggregate-complexes, were due to the relative differences in the hydrophobicity of the binding sites in the two instances.

Aβ (1-40) = target: T3, Aβ (1-40) (Homo sapiens, UniProt P05067); assay: CD spectroscopy of peptide aged in the presence of Congo red (coaggregates); type: biochemical; conditions: far-UV CD
T3 construct: Aβ (1-40) was dissolved in 100% hexafluoroisopropanol
Excerpt: Circular Dichroism Spectroscopy. Conformational change of the peptide from the random coil to the β-sheet form, during aging, was monitored using changes to the molar ellipticity of the peptide at 200, 218, or 225 nm. This assay was also used to determine if the changes in the CD spectra occurred concurrently with the changes in the fluorescence spectra of thioflavin. The CD spectrum of the peptide was scanned at various time points to correlate the formation of thioflavin-binding macromolecular assemblies with the appearance of β-sheet conformation.
CD spectra were recorded on a JASCO™ spectropolarimeter model J715 (Jasco, Easton, Md.) at room temperature in a 0.1 cm pathlength cell. Typically, the peptide samples were aliquoted at various time intervals for fluorescence and the CD spectra were scanned using the remaining solution. The CD spectra of the peptide were recorded in the far-UV between 190-260 nm. The spectral results are expressed as deg.[…].dmol^−1.
Amyloid peptide (Aβ) was aged in the absence and presence of Congo red as described below: Aβ (1-40) was dissolved in 100% hexafluoroisopropanol to produce a final concentration of 200 or 400 μM. To aid dissolution of peptide, the solution was sonicated briefly, for about five seconds. An appropriate volume of the peptide solution was transferred to an amber vial and the solvent was evaporated under a stream of nitrogen. […]

T1 sequence (P05067 672-711 limits assumed): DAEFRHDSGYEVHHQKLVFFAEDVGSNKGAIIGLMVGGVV
T2 sequence (P05067 672-711 limits assumed): as above
T3 sequence (P05067 672-711 limits assumed): as above

Compound: Aβ (1-40): synthetic β-amyloid peptide corresponding to the first 40 amino acids of Aβ, purchased from Anaspec
- Percent Aggregation in HEPES ([1]; aggregation time 0 hr): 0%
- Percent Aggregation in PBS ([1]; aggregation time 0 hr): 0%
- Percent Aggregation in NEUROBASAL Medium ([1]; aggregation time 0 hr, relative to thioflavin/Aβ fluorescence at 0 and 4 hr): 0%
- Percent Aggregation in HEPES ([1]; aggregation time 1 hr): 0%
- Percent Aggregation in NEUROBASAL Medium ([1]; aggregation time 1 hr): 0%
- Percent Aggregation in PBS ([1]; aggregation time 1 hr): 0%
- Percent Aggregation in HEPES ([1]; aggregation time 2 hr): 0%
- Percent Aggregation in NEUROBASAL Medium ([1]; aggregation time 2 hr): 76%
- Percent Aggregation in PBS ([1]; aggregation time 2 hr): 51%
- Percent Aggregation in HEPES ([1]; aggregation time 4 hr): ++
- Percent Aggregation in NEUROBASAL Medium ([1]; aggregation time 4 hr): 100%
- Percent Aggregation in PBS ([1]; aggregation time 4 hr): 100%
- Toxicity to neuronal cultures ([2]; aggregated peptide (aged for four hours)): toxic
- Toxicity to neuronal cultures ([2]; fresh peptide): non-toxic

Compound: Nc1c(/N=N/c2ccc(-c3ccc(/N=N/c4cc(S(=O)(=O)[O-])c5ccccc5c4N)cc3)cc2)cc(S(=O)(=O)[O-])c2ccccc12.[Na+].[Na+] [Congo red]
- Mode of binding to aggregated peptide [3]: non-competitively
- Quenching of fluorescence of free thioflavin ([3]; free thioflavin): 50%
- Quenching of fluorescence of peptide-bound thioflavin ([3]; peptide-bound thioflavin, Congo red 0.1 to 3.5 micromolar): greater than one order of magnitude
- Effect on toxicity of Aβ ([2]; Congo red complexed with preformed aggregates and in co-aggregates): attenuates the toxicity
- Neuroprotection of cell cultures exposed to amyloid peptide ([2]; hippocampal cultures, LDH release): neuroprotective
- Fluorescence enhancement relative to the free form (β-amyloid protein 1-40; Congo red co-aggregated with the amyloid polypeptide): eight-fold
- Fluorescence enhancement relative to the free form (β-amyloid protein 1-40; complex between preformed fibrils and Congo red): two-fold
- Effect on aggregation rate of the peptide (Aβ (1-40)): slowed down

Compound: Cc1ccc2c(c1)sc(-c1ccc(N(C)C)cc1)[n+]2C.[Cl-] [thioflavin, Thioflavin T]
- Mode of binding to aggregated peptide [3]: non-competitively
